Results as given in paper PMC6499816, “Molecular determinants regulating selective binding of autophagy adapters and receptors to ATG8 proteins” (Nature Communications, 2019).
pKd: −log10 of the molar value.

What was measured:
[1] = target: ULK1 LIR peptide (biotinylated, BLI) (human); assay: BLI; biotinylated LIR peptide (50 μg/ml) immobilised on streptavidin biosensor, ATG8 in solution; Octet Red 96; 25 mM Tris pH 7.5, 150 mM NaCl, 0.5 mM TCEP, 0.1% Tween-20, 1 mg/ml BSA; 25 °C; Kd from response against concentration
[2] = target: PCM1 LIR peptide (biotinylated, BLI); assay: as above
PCM1 WT LIR peptide = assay: BLI; biotinylated LIR peptide immobilised on streptavidin biosensors (Octet Red 96), ATG8 protein in solution; 25 mM Tris pH 7.5, 150 mM NaCl, 0.5 mM TCEP, 0.1% Tween-20, 1 mg/ml BSA, 25 °C; Kd from response against concentration, Y=Rmax*X/(Kd+X)
GFP-GABARAP F60L (human) = GFP-GABARAP F60L (human) (UniProt O95166); assay: co-IP; GFP-TRAP beads, lysates of HEK293A cells expressing GFP-GABARAP or GFP-LC3B constructs, TNTE buffer, 2 h at 4 °C; immunoblot of endogenous proteins, quantified
FIP200 T704I LIR peptide = assay: BLI; biotinylated LIR peptide immobilised on streptavidin biosensors (Octet Red 96), ATG8 protein in solution; 25 mM Tris pH 7.5, 150 mM NaCl, 0.5 mM TCEP, 0.1% Tween-20, 1 mg/ml BSA, 25 °C; Kd from response against concentration, Y=Rmax*X/(Kd+X)
PCM1 K1957I LIR peptide = assay: as above
[3] = target: -L1 (recombinant, BLI) (human) (UniProt Q9H0R8); assay: BLI
Sequence of -L1 (recombinant, BLI) (human) (Q9H0R8 whole entry): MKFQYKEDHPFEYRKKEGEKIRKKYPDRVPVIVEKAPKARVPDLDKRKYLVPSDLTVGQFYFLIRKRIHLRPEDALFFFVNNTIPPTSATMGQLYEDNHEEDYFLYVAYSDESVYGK

LC3B (Homo sapiens) = LC3B (Homo sapiens) (UniProt Q9GZQ8); assay: ITC; conditions: cited from earlier work
PCM1 V1956D LIR peptide = assay: BLI; biotinylated LIR peptide immobilised on streptavidin biosensors (Octet Red 96), ATG8 protein in solution; 25 mM Tris pH 7.5, 150 mM NaCl, 0.5 mM TCEP, 0.1% Tween-20, 1 mg/ml BSA, 25 °C; Kd from response against concentration, Y=Rmax*X/(Kd+X)

Sequence of GABARAP-L1 (recombinant, BLI) (Q9H0R8 whole entry): as above
Sequence of PCM1 LIR peptide mutated at P1962 (X7) (BLI) (Q15154 whole entry, looked up, change not shown, tested part not stated): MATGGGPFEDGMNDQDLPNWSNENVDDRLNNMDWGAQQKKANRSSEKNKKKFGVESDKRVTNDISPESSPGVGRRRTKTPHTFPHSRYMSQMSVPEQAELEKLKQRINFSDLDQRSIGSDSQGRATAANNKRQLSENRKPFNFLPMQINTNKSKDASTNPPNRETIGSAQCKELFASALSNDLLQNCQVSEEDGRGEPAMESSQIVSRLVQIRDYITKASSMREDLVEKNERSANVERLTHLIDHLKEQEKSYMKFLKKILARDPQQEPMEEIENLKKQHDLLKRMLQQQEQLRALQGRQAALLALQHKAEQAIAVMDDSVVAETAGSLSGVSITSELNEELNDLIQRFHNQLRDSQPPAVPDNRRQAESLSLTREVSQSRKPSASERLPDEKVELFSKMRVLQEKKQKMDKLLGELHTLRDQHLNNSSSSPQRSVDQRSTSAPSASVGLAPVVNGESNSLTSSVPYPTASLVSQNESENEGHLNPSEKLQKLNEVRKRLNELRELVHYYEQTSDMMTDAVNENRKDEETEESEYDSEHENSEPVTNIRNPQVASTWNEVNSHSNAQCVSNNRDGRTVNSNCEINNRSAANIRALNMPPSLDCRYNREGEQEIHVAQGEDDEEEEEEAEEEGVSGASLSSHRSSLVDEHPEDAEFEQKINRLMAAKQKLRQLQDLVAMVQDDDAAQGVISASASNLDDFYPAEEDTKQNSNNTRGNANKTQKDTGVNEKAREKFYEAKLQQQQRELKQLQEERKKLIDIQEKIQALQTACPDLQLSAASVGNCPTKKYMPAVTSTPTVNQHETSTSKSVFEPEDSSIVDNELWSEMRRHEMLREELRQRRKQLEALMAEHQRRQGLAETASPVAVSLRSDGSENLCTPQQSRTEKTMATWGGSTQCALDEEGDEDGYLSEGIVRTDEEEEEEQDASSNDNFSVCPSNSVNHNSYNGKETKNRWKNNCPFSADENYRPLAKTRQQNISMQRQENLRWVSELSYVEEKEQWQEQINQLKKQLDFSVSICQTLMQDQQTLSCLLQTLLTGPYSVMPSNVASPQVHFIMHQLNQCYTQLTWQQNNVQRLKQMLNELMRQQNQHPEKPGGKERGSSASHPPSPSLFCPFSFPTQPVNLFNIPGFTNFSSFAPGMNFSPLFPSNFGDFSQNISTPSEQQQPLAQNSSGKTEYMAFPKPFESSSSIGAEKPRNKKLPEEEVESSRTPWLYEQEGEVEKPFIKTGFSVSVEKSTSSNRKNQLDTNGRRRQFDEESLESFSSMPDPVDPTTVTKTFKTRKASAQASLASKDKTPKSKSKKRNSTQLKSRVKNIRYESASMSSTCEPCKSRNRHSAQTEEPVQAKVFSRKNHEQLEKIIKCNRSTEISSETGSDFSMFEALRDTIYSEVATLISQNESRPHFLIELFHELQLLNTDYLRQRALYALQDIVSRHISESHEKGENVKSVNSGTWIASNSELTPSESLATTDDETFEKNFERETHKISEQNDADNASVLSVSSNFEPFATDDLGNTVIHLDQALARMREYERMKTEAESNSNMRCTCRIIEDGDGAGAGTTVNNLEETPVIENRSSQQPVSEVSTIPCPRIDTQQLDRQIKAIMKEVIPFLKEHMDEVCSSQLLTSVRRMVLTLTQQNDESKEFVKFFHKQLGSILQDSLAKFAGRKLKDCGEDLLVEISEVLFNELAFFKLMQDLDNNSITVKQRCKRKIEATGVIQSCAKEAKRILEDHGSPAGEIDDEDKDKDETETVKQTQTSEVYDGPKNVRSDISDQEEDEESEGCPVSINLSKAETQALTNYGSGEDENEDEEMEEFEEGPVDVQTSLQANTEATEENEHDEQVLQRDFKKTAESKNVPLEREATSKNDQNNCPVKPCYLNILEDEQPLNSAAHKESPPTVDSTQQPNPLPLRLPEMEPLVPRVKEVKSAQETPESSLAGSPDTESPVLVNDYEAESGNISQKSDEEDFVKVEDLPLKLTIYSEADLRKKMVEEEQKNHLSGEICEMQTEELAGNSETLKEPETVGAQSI

Substance “GABARAP (recombinant, BLI) (from UniProt O95166 1-117) (natural protein)” has a pKd [1] of 7.30 and a pKd [2] of 5.70.

In the case of “GABARAP Y25H (from UniProt O95166 1-117) (natural protein)”, the pKd (PCM1 WT LIR peptide) was 4.94.

“GABARAP-L1 (recombinant, BLI) (from UniProt Q9H0R8 1-117) (natural protein)” showed a pKd [1] of 7.32 and a pKd [2] of 5.80.

“PCM1 (pericentriolar material 1), Q15154-5 1-2016” gave a percent reduction of interaction against WT GABARAP (GFP-GABARAP F60L (human)) of 90%.

In the case of “GABARAP K24Q/Y25H/Q59E/F60L (from UniProt O95166 1-117) (natural protein)”, the pKd (PCM1 WT LIR peptide) was 3.60.

“GABARAP K24Q (from UniProt O95166 1-117) (natural protein)” gave a pKd (PCM1 WT LIR peptide) of 4.78.

Substance “LC3C (from UniProt Q9BXW4 1-126) (natural protein)” has a pKd (FIP200 T704I LIR peptide) of 5.70 and a pKd (PCM1 K1957I LIR peptide) of 6.42.

For “GABARAP K24Q/Y25H/R28K (from UniProt O95166 1-117) (natural protein)”, the pKd (PCM1 WT LIR peptide) was 4.18.

“LC3A (from UniProt Q9H492 1-121) (natural protein)” showed a pKd (PCM1 K1957I LIR peptide) of 5.41.

With “PCM1 LIR peptide mutated at P1962 (X7) (BLI) (from UniProt Q15154)” the pKd [3] was 6.06.

For p62 LIR (from UniProt Q13501), the pKd (LC3B (Homo sapiens)) is listed as 5.49.

For “GABARAP (from UniProt O95166 1-117) (natural protein)”, the pKd (PCM1 V1956D LIR peptide) was 5.11.
